Source: paper PMC8633780

Molecular target: EstN7, cold active family IV (hormone sensitive lipase family) esterase from Bacillus cohnii strain N1 (Bacillus cohnii strain N1)
Test: SEC; size exclusion chromatography of purified EstN7 in solution (supplementary figure S1)

stoichiometry N: 2
Substance: EstN7, cold active family IV (hormone sensitive lipase family) esterase from Bacillus cohnii strain N1 (enzyme)
